The target of test [1] is TLR5 (endogenous, on Jurkat JE6-1 NF-κB::eGFP reporter cells) (human (endogenous in Jurkat JE6-1)) (UniProt O60602).
Test [2] has the same target. This is another data set of the same source.

Chain of UniProt O60602 (O60602 21-858): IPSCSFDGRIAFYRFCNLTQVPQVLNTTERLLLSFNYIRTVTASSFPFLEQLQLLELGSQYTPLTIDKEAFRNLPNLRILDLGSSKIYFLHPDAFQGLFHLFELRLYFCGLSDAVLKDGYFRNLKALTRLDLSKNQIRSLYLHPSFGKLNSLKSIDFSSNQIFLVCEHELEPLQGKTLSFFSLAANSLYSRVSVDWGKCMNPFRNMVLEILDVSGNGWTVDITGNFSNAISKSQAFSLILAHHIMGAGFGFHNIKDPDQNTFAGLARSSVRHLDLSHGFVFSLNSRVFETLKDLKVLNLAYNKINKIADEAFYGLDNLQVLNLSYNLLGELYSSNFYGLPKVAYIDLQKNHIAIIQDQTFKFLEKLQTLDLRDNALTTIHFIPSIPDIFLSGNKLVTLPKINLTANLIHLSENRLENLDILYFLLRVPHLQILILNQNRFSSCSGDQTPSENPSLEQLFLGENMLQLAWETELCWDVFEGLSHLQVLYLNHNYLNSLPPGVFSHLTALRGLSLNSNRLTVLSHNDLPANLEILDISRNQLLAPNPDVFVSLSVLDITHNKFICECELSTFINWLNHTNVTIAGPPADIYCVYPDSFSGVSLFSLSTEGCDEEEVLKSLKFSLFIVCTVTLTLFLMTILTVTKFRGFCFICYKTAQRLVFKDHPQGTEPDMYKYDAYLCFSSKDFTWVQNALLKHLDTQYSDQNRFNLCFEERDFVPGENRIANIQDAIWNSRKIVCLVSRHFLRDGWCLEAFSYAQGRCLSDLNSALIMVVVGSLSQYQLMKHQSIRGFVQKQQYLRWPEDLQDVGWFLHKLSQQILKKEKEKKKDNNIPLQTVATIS

Consider “flagellin purified from S. typhimurium (Fla-ST standard and Fla-ST ultrapure) (from UniProt P06179 1-495) (ligand)”, for which the NF-κB::eGFP expression in Jurkat JE6-1 reporter cells (endogenous TLR5), flagellin titrated, 24 h, flow cytometry; lowest concentration giving detectable eGFP in test [1] was under 100 pg/mL. For the same substance, the limit of detection (concentration giving a 1.5-fold increase of eGFP) in JE6-1 TLR5 NF-κB::eGFP reporter cells, flagellin titrated in test [2] is 10 pg/mL.
